Results on one protein are retold here after article PMC9670692.

Substrate in this data set: NC(=O)C[C@H](N)C(=O)O
The data set is described as follows: purified protein. The settings on record: PBS pH 7.2, 37 °C, 1-200 mM asparagine.

B1: PtAsp2like1 (Picrophilus oshimae DSM 9789) (protein)
chain: MNVIMLHGGAGSTGVEQKLMEYAVKSKSGSALDSVCNAVVLMENDPCFNAGTGSCMRLDGSIQMDAAVMTSKGFGSVMAIENVKNPVLVARAVMERSPHLIMAGDGAEKFAHLLGFEKYDPSTERAAKRRENDISMILSRKIDSYNKMMETVDISKFVDTVGAVARVNGEFAAAVSTGGAPPMLRGRVGDSPVPGAGIFCGENGAVVATGVGEEIIKNMLCISIYNEIGRESLSKIVMKNISRFRYHAGVIAVSNEEYFAYSNTDMSYAALEF
Usually Km stands for the concentration of substrate that gives half-maximal velocity. By kcat is commonly meant the maximal rate divided by the concentration of active sites. B1: the Km came to 11.69 mM and the kcat is 0.056 s⁻¹.
